Consider one molecule from publication PMC2933939 (Bioorganic & medicinal chemistry, 2010).

The target of this assay is Heat shock protein 90 (Hsp90), purified, native (UniProt P07900 1-732). Description: pull-down.

B1: Sansalvamide A-amide (San A-amide), compound 1, macrocycle Phe-Leu-Val-Leu-Leu (peptide)
peptide: FLVLL
modifications: head-to-tail cyclised macrocycle (cyclic pentapeptide)
Turning to B1, the IC50 (commonly the concentration that inhibits the measured activity by half) came out at 19.7 µM.
